Assay results from the supplement of paper PMC9112550, “Optimization of the antimicrobial peptide Bac7 by deep mutational scanning” (BMC Biology, 2022).

Test system: Escherichia coli TOP10
Experiment: shrunken log2 fold change of peptide-encoding DNA abundance (4.5 h post-induction vs induction); higher = less antimicrobial activity (less host growth inhibition)
Settings: time post-induction: 4.5 h; library: site-saturation at positions 5, 18, 19, 20
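Note: peptides expressed intracellularly from a pBAD plasmid library in pooled LB shake-flask culture, induced with 0.3% L-arabinose, DNA abundance read by NGS, three biological replicates, DESeq2 with apeglm shrinkage.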

Sequence	shrunken log2 fold change
RRIRPRPPRLPRPRPRPSHGPRP	0.108
RRIRRRPPRLPRPRPRPCGQPRP	0.205
RRIRGRPPRLPRPRPRPERIPRP	-0.0324
RRIRARPPRLPRPRPRPYMDPRP	-0.0602
RRIRIRPPRLPRPRPRPWAPPRP	-0.19
RRIRDRPPRLPRPRPRPEGEPRP	-0.0124
RRIRFRPPRLPRPRPRPRMMPRP	-0.404
RRIRPRPPRLPRPRPRPQWWPRP	0.111
RRIRGRPPRLPRPRPRPPSDPRP	1.05
RRIRDRPPRLPRPRPRPPTNPRP	0.0808
RRIRWRPPRLPRPRPRPMAIPRP	-0.198
RRIRNRPPRLPRPRPRPNQTPRP	-0.0303
RRIRMRPPRLPRPRPRPVAWPRP	0.213
RRIRDRPPRLPRPRPRPFTRPRP	-0.242
RRIRSRPPRLPRPRPRPNERPRP	-0.395
RRIRFRPPRLPRPRPRPATSPRP	0.0918
RRIRPRPPRLPRPRPRPSTCPRP	-0.11
RRIRKRPPRLPRPRPRPQRTPRP	0.419
RRIRRRPPRLPRPRPRPNLVPRP	-0.023
RRIRKRPPRLPRPRPRPVEDPRP	-0.000777
RRIRGRPPRLPRPRPRPNGQPRP	0.386
RRIRRRPPRLPRPRPRPFMRPRP	0.341
RRIRSRPPRLPRPRPRPEHYPRP	-0.132
RRIRSRPPRLPRPRPRPCPQPRP	0.0538
RRIRHRPPRLPRPRPRPGIHPRP	-0.2

Sequence	shrunken log2 fold change
RRIRVRPPRLPRPRPRPRMKPRP	-0.167
RRIRTRPPRLPRPRPRPPNVPRP	-0.201
RRIRTRPPRLPRPRPRPIYNPRP	-0.254
RRIRARPPRLPRPRPRPLEPPRP	0.451
RRIRDRPPRLPRPRPRPQDEPRP	-0.166
RRIRARPPRLPRPRPRPQWLPRP	0.144
RRIRIRPPRLPRPRPRPWYWPRP	-1.38
RRIRFRPPRLPRPRPRPPKCPRP	0.0793
RRIRMRPPRLPRPRPRPPKIPRP	0.45
RRIRHRPPRLPRPRPRPVYKPRP	-0.665
RRIRCRPPRLPRPRPRPINQPRP	-0.485
RRIRDRPPRLPRPRPRPTRPPRP	1.13
RRIRCRPPRLPRPRPRPPVMPRP	0.298
RRIRQRPPRLPRPRPRPIMPPRP	-0.361
RRIRNRPPRLPRPRPRPSIFPRP	-0.662
RRIRARPPRLPRPRPRPIKKPRP	-0.00732
RRIRNRPPRLPRPRPRPTNYPRP	-0.73
RRIRTRPPRLPRPRPRPNVAPRP	0.174
RRIRNRPPRLPRPRPRPKWLPRP	-0.00522
RRIRHRPPRLPRPRPRPRVEPRP	0.0973
RRIRERPPRLPRPRPRPDAKPRP	0.0113
RRIRHRPPRLPRPRPRPLHAPRP	0.297
RRIRRRPPRLPRPRPRPFSVPRP	0.0458
RRIRHRPPRLPRPRPRPELKPRP	0.127
RRIRTRPPRLPRPRPRPGGPPRP	0.257

Sequence	shrunken log2 fold change
RRIRARPPRLPRPRPRPPGWPRP	1.22
RRIRYRPPRLPRPRPRPDGSPRP	-0.317
RRIRQRPPRLPRPRPRPVYSPRP	-0.0563
RRIRRRPPRLPRPRPRPGTKPRP	0.0056
RRIRFRPPRLPRPRPRPQVFPRP	-0.139
RRIRNRPPRLPRPRPRPCISPRP	-0.802
RRIRTRPPRLPRPRPRPAQEPRP	-0.00523
RRIRGRPPRLPRPRPRPIDPPRP	-0.0473
RRIRARPPRLPRPRPRPWELPRP	0.0412
RRIRDRPPRLPRPRPRPIWLPRP	0.0516
RRIRMRPPRLPRPRPRPTVPPRP	0.388
RRIRTRPPRLPRPRPRPHICPRP	-0.13
RRIRKRPPRLPRPRPRPGDMPRP	0.277
RRIRFRPPRLPRPRPRPKDLPRP	0.0796
RRIRHRPPRLPRPRPRPDSDPRP	0.0112
RRIRARPPRLPRPRPRPFEAPRP	0.564
RRIRMRPPRLPRPRPRPHNVPRP	0.0515
RRIRVRPPRLPRPRPRPTGAPRP	0.47
RRIRPRPPRLPRPRPRPEYLPRP	0.0461
RRIRMRPPRLPRPRPRPAKPPRP	0.453
RRIRVRPPRLPRPRPRPRLYPRP	0.13
RRIRTRPPRLPRPRPRPENLPRP	-0.0254
RRIRVRPPRLPRPRPRPWGMPRP	0.0336
RRIRWRPPRLPRPRPRPALDPRP	0.553
RRIRRRPPRLPRPRPRPLHMPRP	0.0287

Sequence	shrunken log2 fold change
RRIRARPPRLPRPRPRPGCDPRP	0.78
RRIRSRPPRLPRPRPRPKLLPRP	0.325
RRIRQRPPRLPRPRPRPGMYPRP	-0.35
RRIRRRPPRLPRPRPRPNDHPRP	0.0277
RRIRLRPPRLPRPRPRPKIGPRP	-0.251
RRIRDRPPRLPRPRPRPDDIPRP	-0.00277
RRIRERPPRLPRPRPRPAPNPRP	0.258
RRIRGRPPRLPRPRPRPSNDPRP	0.702
RRIRDRPPRLPRPRPRPVMDPRP	0.114
RRIRVRPPRLPRPRPRPSMPPRP	-0.343
RRIRDRPPRLPRPRPRPLCRPRP	-0.0528
RRIRQRPPRLPRPRPRPMGRPRP	-0.00151
RRIRWRPPRLPRPRPRPENCPRP	0.138
RRIRKRPPRLPRPRPRPEALPRP	1.67
RRIRTRPPRLPRPRPRPGVRPRP	0.272
RRIRMRPPRLPRPRPRPAFCPRP	0.455
RRIRYRPPRLPRPRPRPLYRPRP	-0.335
RRIRARPPRLPRPRPRPVGLPRP	0.321
RRIRTRPPRLPRPRPRPMFFPRP	-0.204
RRIRARPPRLPRPRPRPEDQPRP	0.0203
RRIRNRPPRLPRPRPRPARNPRP	-0.0209
RRIRPRPPRLPRPRPRPARGPRP	0.606
RRIRCRPPRLPRPRPRPTQEPRP	0.121
RRIRTRPPRLPRPRPRPNMGPRP	-0.0939
RRIRPRPPRLPRPRPRPHHTPRP	-0.617

Sequence	shrunken log2 fold change
RRIRIRPPRLPRPRPRPQTIPRP	-0.337
RRIRWRPPRLPRPRPRPVRPPRP	0.305
RRIRVRPPRLPRPRPRPCCCPRP	0.0615
RRIRWRPPRLPRPRPRPVLAPRP	0.582
RRIRKRPPRLPRPRPRPSCAPRP	0.523
RRIRGRPPRLPRPRPRPSFPPRP	-0.0674
RRIRWRPPRLPRPRPRPVCHPRP	0.0811
RRIRIRPPRLPRPRPRPAMWPRP	0.13
RRIRRRPPRLPRPRPRPWQCPRP	-0.0743
RRIRYRPPRLPRPRPRPPDWPRP	0.299
RRIRPRPPRLPRPRPRPPTNPRP	0.222
RRIRSRPPRLPRPRPRPPPDPRP	0.848
RRIRYRPPRLPRPRPRPWLVPRP	-0.096
RRIRMRPPRLPRPRPRPVNGPRP	-0.0577
RRIRGRPPRLPRPRPRPLPDPRP	0.926
RRIRNRPPRLPRPRPRPYMQPRP	-0.315
RRIRPRPPRLPRPRPRPFNAPRP	-0.287
RRIRTRPPRLPRPRPRPLPKPRP	-0.0549
RRIRARPPRLPRPRPRPCPMPRP	-0.0338
RRIRTRPPRLPRPRPRPYRDPRP	-0.383
RRIRWRPPRLPRPRPRPKVAPRP	1.16
RRIRPRPPRLPRPRPRPRVPPRP	0.342
RRIRTRPPRLPRPRPRPTQIPRP	0.0112
RRIRERPPRLPRPRPRPHYVPRP	-0.0222
RRIRMRPPRLPRPRPRPPRSPRP	1.6

Sequence	shrunken log2 fold change
RRIRRRPPRLPRPRPRPGKKPRP	0.0542
RRIRVRPPRLPRPRPRPQQHPRP	-0.0119
RRIRYRPPRLPRPRPRPMVYPRP	-0.00783
RRIRLRPPRLPRPRPRPMFIPRP	-0.734
RRIRKRPPRLPRPRPRPTSQPRP	0.149
RRIRLRPPRLPRPRPRPTGCPRP	0.19
RRIRWRPPRLPRPRPRPECDPRP	1.93
RRIRARPPRLPRPRPRPGIPPRP	0.162
RRIRCRPPRLPRPRPRPHTIPRP	-0.38
RRIRLRPPRLPRPRPRPMKFPRP	0.0807
RRIRPRPPRLPRPRPRPMLLPRP	0.0229
RRIRSRPPRLPRPRPRPSMKPRP	-0.59
RRIRNRPPRLPRPRPRPNNSPRP	-0.376
RRIRIRPPRLPRPRPRPEMEPRP	-0.0895
RRIRGRPPRLPRPRPRPYTWPRP	0.0845
RRIRMRPPRLPRPRPRPDGLPRP	0.143
RRIRVRPPRLPRPRPRPDSWPRP	-0.0688
RRIRCRPPRLPRPRPRPWCFPRP	-0.712
RRIRWRPPRLPRPRPRPQKHPRP	-0.15
RRIRFRPPRLPRPRPRPPVRPRP	0.443
RRIRVRPPRLPRPRPRPLSKPRP	-0.303
RRIRSRPPRLPRPRPRPDFSPRP	0.0706
RRIRWRPPRLPRPRPRPFHKPRP	-0.28
RRIRGRPPRLPRPRPRPNFYPRP	0.22
RRIRDRPPRLPRPRPRPNKIPRP	-0.457
